Laboratory results: patent publication US20160129078A1, “Rhomboid Proteins and Uses Thereof” (Queen's University at Kingston, priority 2014, published 2016)

Test system: Pseudomonas aeruginosa
Experiment: Enhancement of peptide delivery into Pseudomonas aeruginosa
Type: cell-based
Conditions: nine amino acid peptides targeting Type II secretion pseudopilin subunit
Source text: With the Pseudomonas assay system described above, it was also possible to assess the ability and the utility of At1g74130 protein variants in the delivery of other peptides into cells. The assays were designed in the same manner as above to determine if peptide delivery can be enhanced or facilitated by rhomboids. The other peptides used were designed to inhibit protein secretion, in this case, lipases. The peptides used in these assays were nine amino acids long and targeted a specific region of one protein subunit of the Type II secretion machinery pseudopilin. The inhibitory actions of this nine amino acid peptide are due to interactions with the target region of the protein subunit. If peptide delivery was facilitated or enhanced by rhomboids, outcomes may be observed by changes in cell/colony growth (Pseudomonas) on the minimal media-olive oil plates. Such changes in growth would reflect changes in lipase secretion, which is needed for breaking down olive oil so that the released carbon can be used for cell growth.
The delivery of the M variant further into the cell releases the impairment and allows growth to resume (i.e., the assay with elution buffer, DMSO, and M). […]

B1: At1g74130 M: 7/8 M-form splice variant of Arabidopsis At1g74130 rhomboid protein (protein, listed as Arabidopsis thaliana)
chain: MHAIFCRRVAVGCSSPQLTKLVTKQASQSRHSLSHLLPFDLSSRFVPPYVVSRSARVHGFFAGKLGNTNLKLKFGNVMESRAGFFSSELPSHGFESGGFTGFQKRGWKSWINGANGVVFGLVIANAAVFTMWRVLGKDNMWMVKNFMLSRYSFMTGRIHTLITSGFSHVGATHIILNMMGLCYFGARIARSFGPRYLLKLYFAGALGGSVFFLSSHALSVISLKGQRVVPKDQLKVPIGKLGANGPVYAITLLDMLLYPKVTTYFGLMLRVPVFAGIYSLGLNIIKMLEVCMMGKTTIP
B1 was tested, and the “peptide delivery into cells” value was “facilitation and/or enhancement of peptide delivery”.
